Source: patent US20100285597A1 (UNIVERSITY OF ROCHESTER, published 2010)

Target: T1, BACE1 (UniProt P56817 46-501, limits assumed)
T1 construct: Detected as monomer and dimer in the co-immunoprecipitates; also called β-secretase
Experiment: co-immunoprecipitation from HEK 293 lysates with nectin-1 cytoplasmic specific antibody, anti-BACE1 Western blot
Description: To define the minimal region within the ectodomain of nectin-1 required for BACE1 interaction, immunoprecipitations between the nectin-1 truncation mutants and BACE1 were performed. BACE1 and full length or truncated nectin-1 were co-expressed in HEK 293 cells and harvested 48 hr. after transfection. To confirm to the efficiencies of the co-transfections, equal volumes of cell lysate were loaded on SDS-PAGE gels and analyzed by Western blot. Transfection efficiency was similar for nectin-1 and its derivates (FIG. 10A) and BACE1 (FIG. 10B). Immunoprecipitation was performed with a nectin-1 cytoplasmic specific antibody and precipitates were analyzed on two separate 10% SDS-PAGE. Western blots were probed with anti-nectin-1 (FIG. 10C) or anti-BACE1 (FIG. 10D) antibodies. The nectin-1 antibody directly immunoprecipitated the respective nectin-1 polypeptides and processed CTFs (FIG. 10C). Furthermore, BACE1, both monomer and dimer, was immunoprecipitated by the nectin-1 antibody, confirming the association of BACE1 with nectin-1. Two truncation mutants Δ28-250 and Δ28-300, interacted with BACE1 very strongly.

T1 sequence (P56817 46-501 limits assumed): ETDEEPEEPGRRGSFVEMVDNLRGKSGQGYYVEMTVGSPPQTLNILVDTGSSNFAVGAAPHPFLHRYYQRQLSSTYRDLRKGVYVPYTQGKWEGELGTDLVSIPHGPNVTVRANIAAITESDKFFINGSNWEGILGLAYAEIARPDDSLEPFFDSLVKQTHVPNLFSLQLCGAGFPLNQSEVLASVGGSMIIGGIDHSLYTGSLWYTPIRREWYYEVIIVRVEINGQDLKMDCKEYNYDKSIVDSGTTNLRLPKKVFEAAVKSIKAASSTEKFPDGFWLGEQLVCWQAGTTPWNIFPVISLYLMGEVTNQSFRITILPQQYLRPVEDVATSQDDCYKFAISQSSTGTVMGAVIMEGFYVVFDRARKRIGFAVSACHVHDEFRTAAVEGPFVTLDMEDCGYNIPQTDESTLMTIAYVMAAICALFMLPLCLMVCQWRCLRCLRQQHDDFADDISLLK

binding result: no binding
B1: nectin-1 truncation mutant Δ28-349 (receptor)
chain: PTAIIGGVAGSILLVLIVVGGIVVALRRRRHTFKGDYSTKKHVYGNGYSKAGIPQHHPPMAQNLQYPDDSDDEKKAGPLGGSSYEEEEEEEEGGGGGERKVGGPHPKYDEDAKRPYFTVDEAEARQDGYGDRTLGYQYDPEQLDLAENMVSQNDGSFISKKEWYV
notes: see m5; not shown: flag tag at the C-terminus
